# Assay results reported in US20140289906A1, “Compositions Having Dicamba Decarboxylase Activity and Methods of Use” (priority 2013, published 2014).
# Entries after “also recorded” stand apart in the source; their conditions may differ.
# Columns and labels:
# [1] = Dicamba decarboxylation activity of computationally designed protein variants and parents (Tables 4, 5); settings: native proteins and designed variants; assay not specified
# [2] = 14C assay: 14CO2 capture from [14C]-carboxyl-labeled dicamba with IPTG-induced recombinant E. coli cells; settings: for Dicamba Decarboxylase Activity: IPTG-induced recombinant E. coli cells, 14CO2 from [14C]-carboxyl-labeled dicamba; for Enzymatic Detection level: dicamba decarboxylation activity
Molecule,dicamba decarboxylase activity (statement in the description) [1],Dicamba Decarboxylase Activity [2],Enzymatic Detection level [2]
"95 (protein, listed as Pseudomonas fluorescens) MAKKPRIDMHSHFFPRISEQEAAKFDANHAPWLQVSAKGDTGSIMMGKNNFRPVYQALWDPAFRIEEMDAQGVDVQVTCATPVMFGYTWEANKAAQWAERMNDFALEFAAHNPQRIKVLAQVPLQDLDLACKEASRAVAAGHLGIQIGNHLGDKDLDDATLEAFLTHCANEDIPILVHPWDMMGGQRMKKWMLPWLVAMPAETQLAILSLILSGAFERIPKSLKICFGHGGGSFAFLLGRVDNAWRHRDIVREDCPRPPSEYVDRFFVDSAVFNPGALELLVSVMGEDRVMLGSDYPFPLGEQKIGGLVLSSNLGESAKDKIISGNASKFFNINV",not active for dicamba decarboxylation; also recorded: Neither of the native proteins have dicamba decarboxylase activity,No,No
"29 (protein, listed as Pseudovibrio sp.) MAGRRDFLRKSVAAGVGLTAAAQLSAGGAQATVPDTSNIPLITLEEHFTTPELQSKNTSGDKRLFSGGGSRPELLDVGAGRIADMDEAGIDIQVLSTVTPGASKITGAEGVEFTRKFNTWIAEEVIAAYPNRFRAFATLPLSSPEAAADELERSVREYGFVGTMTYGPIDGKFLDHADYAPLLARAEALGVPIYIHPNWPSPTAMQAYYDGLGDDLTSRILSGPGYGWHQEIAVQCLRLIVGGVFDRFPNLQIVVGHMGEGLPFYYWRVGEDLDRIAQKRLQKPVQQYFHDNLWITTSAFFRDELLNLALATMGEDRVMFSVDYPMASAKVGADWLRAADIPLATKEKIGSKNAMKLLGIDKI",,No,No
"124 (protein, Dicamba decarboxylase variant clone S03969214) MAQGKVALEEHFAIPETLQDSAGFVPGDYWKELQHRLLDIQDTRLKLMDAHGIETMILSLAAPAVQAIPDRRKAIEIARRANDFLAEECAKRPDRFLAFAALPLQDPDAATEELQRCVNDLGFVGALVNGFSQEGDGQTPLYYDLPQYRPFWGEVEKLDVPFYLHPRNPLPQDSRIYDGHPWLLGPTWAFAQETAVHALRLMASGLFDEHPQLNIILGHMGEGLPYMMWRIDHRVAWGKLPPAYPAKRRFMDYFNENFHITTSGNFRTQTLIDAILEIGADRILFSTDWPFENIDHASDWFNATSIAEADRVKIGRTNARRLFKLDGD",,,High
"125 (protein, Dicamba decarboxylase variant clone S03970523) MAQGKVALEEHFAIPETLQDSAGFVPGDYWKELQHRLLDIQDTRLKLMDAHGIETMILSLAAPAVQAIPDRRKAIEIARRANDFLAEECAKRPDRFLAFAALPLQDPDAATEELQRCVNDLGFVGALVNGFSQEGDGQTPLYYDLPQYRPFWGEVEKLDVPFYLHPRNPLPQDSRIYDGHPWLLGPTWAFAQETAVHALRLMASGLFDEHPRLQIILGHMGEGLPYMMYRIDHRIAWVHEPPRYPAKRRFMDYFNENFHITTSGNFRTQTLIDAILEIGADRILFSTDWPFENIDHASDWFNATSIAEADRVKIGRTNARRLFKLDGA",,,High
"27 (protein, listed as Aspergillus oryzae) MALGKIALEEAFALPRFEEKTRWWASLFSTDAETHVKEITDINKIRIEHADKHGVGYQILSYTAPGVQDIWDPVEAQALAVEINDYIAEQVRVNPDRFGAFATLSMHNPKEAADELRRCVEKYGFKGALVNDTQRAGPDGDDMIFYDNADWDIFWQTCTELDVPFYMHPRNPTGTIYEKLWADRKWLVGPPLSFAHGVSLHVLGMVTNGVFDRHPKLQIIMGHLGEHVPFDMWRINHWFEDRKKLLGLAETCKKTIRDYFAENIWITTSGHFSTTTLNFCMAEVGSDRILFSIDYPFETFSDACEWFDNAELNGTDRLKIGRENAKKLFKLDSYKDSSA",,No,No
"100 (protein, listed as Reinekea blandensis) MAIIDCHGHYTTTPKGVEDYRNAQKAAVAKDPSFKGEKGQVVVSDDEIRESIENNQLKMQRERGTDLTIFSPRASWMGHHIGNEYTSQFWTEHQNDLIRRVCDLFPKNFAPVAQLPQSPGVDPAKSVPEIVRTVEQMGFIGINLNPDPSGGYWKDTSLADRAFYPIYEKMVEYDIPAMIHVSAACNDCFHTTGSHYLGADTTGFQQLIMSDVFKDFPSLKIIIPHGGGAVPYHWGRFRGLMQDQGYAPLEESALKNIYFDTCVYHQRGIDLLLDIVPTQNILFASEMIGAVRGIDPETGHNFDDTKRYIDNNTALNAEEKAMIFEGNARRVFSRLKTD",Neither of the native proteins have dicamba decarboxylase activity,No,No
"25 (protein, listed as Acidovorax avenae) MAQGKIGLEEHFAIPETLQDSAGFVPGDYWKELSLRLLDIHERRLREMDENGMEMMILSLNAPAVQAIPDTKKAVEIAVRANDFLAEQVARRPDRFQAFAALPMQDPDLATRELERCMQDLGFRGALVNGFSQVGTPENVVYYDAPQYGDFWAAVERLDAPFYLHPRNPIASWAQIYQGHPWLMGPTWAFAQETAVHALRLMASGLFDRHPGLRIILGHLGEGLPYNMWRVDHRNAWVDMPKGYPAKRKLCDYFHENFYLTTSGNFRTQTLIDALLEVGADRILFSTDWPFENVDHAAHWFDDAAISEADRLKIGRTNALSLFKLPQG",,Low,Low
